The record followed here is publication PMC3915903 (Cell Research, 2013).

Sequences and labels used below:
B1: Human PTPA, wild-type (natural protein)
chain: MAEGERQPPPDSSEEAPPATQNFIIPKKEIHTVPDMGKWKRSQAYADYIGFILTLNEGVKGKKLTFEYRVSEAIEKLVALLNTLDRWIDETPPVDQPSRFGNKAYRTWYAKLDEEAENLVATVVPTHLAAAVPEVAVYLKESVGNSTRIDYGTGHEAAFAAFLCCLCKIGVLRVDDQIAIVFKVFNRYLEVMRKLQKTYRMEPAGSQGVWGLDDFQFLPFIWGSSQLIDHPYLEPRHFVDEKAVNENHKDYMFLECILFITEMKTGPFAEHSNQLWNISAVPSWSKVNQGLIRMYKAECLEKFPVIQHFKFGSLLPIHPVTSG
B2: PTPA F100D (natural protein)
chain: MAEGERQPPPDSSEEAPPATQNFIIPKKEIHTVPDMGKWKRSQAYADYIGFILTLNEGVKGKKLTFEYRVSEAIEKLVALLNTLDRWIDETPPVDQPSRDGNKAYRTWYAKLDEEAENLVATVVPTHLAAAVPEVAVYLKESVGNSTRIDYGTGHEAAFAAFLCCLCKIGVLRVDDQIAIVFKVFNRYLEVMRKLQKTYRMEPAGSQGVWGLDDFQFLPFIWGSSQLIDHPYLEPRHFVDEKAVNENHKDYMFLECILFITEMKTGPFAEHSNQLWNISAVPSWSKVNQGLIRMYKAECLEKFPVIQHFKFGSLLPIHPVTSG
B3: PTPA V209D (natural protein)
chain: MAEGERQPPPDSSEEAPPATQNFIIPKKEIHTVPDMGKWKRSQAYADYIGFILTLNEGVKGKKLTFEYRVSEAIEKLVALLNTLDRWIDETPPVDQPSRFGNKAYRTWYAKLDEEAENLVATVVPTHLAAAVPEVAVYLKESVGNSTRIDYGTGHEAAFAAFLCCLCKIGVLRVDDQIAIVFKVFNRYLEVMRKLQKTYRMEPAGSQGDWGLDDFQFLPFIWGSSQLIDHPYLEPRHFVDEKAVNENHKDYMFLECILFITEMKTGPFAEHSNQLWNISAVPSWSKVNQGLIRMYKAECLEKFPVIQHFKFGSLLPIHPVTSG
B4: PTPA R293E (natural protein)
chain: MAEGERQPPPDSSEEAPPATQNFIIPKKEIHTVPDMGKWKRSQAYADYIGFILTLNEGVKGKKLTFEYRVSEAIEKLVALLNTLDRWIDETPPVDQPSRFGNKAYRTWYAKLDEEAENLVATVVPTHLAAAVPEVAVYLKESVGNSTRIDYGTGHEAAFAAFLCCLCKIGVLRVDDQIAIVFKVFNRYLEVMRKLQKTYRMEPAGSQGVWGLDDFQFLPFIWGSSQLIDHPYLEPRHFVDEKAVNENHKDYMFLECILFITEMKTGPFAEHSNQLWNISAVPSWSKVNQGLIEMYKAECLEKFPVIQHFKFGSLLPIHPVTSG
B5: PTPA M294K (natural protein)
chain: MAEGERQPPPDSSEEAPPATQNFIIPKKEIHTVPDMGKWKRSQAYADYIGFILTLNEGVKGKKLTFEYRVSEAIEKLVALLNTLDRWIDETPPVDQPSRFGNKAYRTWYAKLDEEAENLVATVVPTHLAAAVPEVAVYLKESVGNSTRIDYGTGHEAAFAAFLCCLCKIGVLRVDDQIAIVFKVFNRYLEVMRKLQKTYRMEPAGSQGVWGLDDFQFLPFIWGSSQLIDHPYLEPRHFVDEKAVNENHKDYMFLECILFITEMKTGPFAEHSNQLWNISAVPSWSKVNQGLIRKYKAECLEKFPVIQHFKFGSLLPIHPVTSG
B6: PTPA V281A (natural protein)
chain: MAEGERQPPPDSSEEAPPATQNFIIPKKEIHTVPDMGKWKRSQAYADYIGFILTLNEGVKGKKLTFEYRVSEAIEKLVALLNTLDRWIDETPPVDQPSRFGNKAYRTWYAKLDEEAENLVATVVPTHLAAAVPEVAVYLKESVGNSTRIDYGTGHEAAFAAFLCCLCKIGVLRVDDQIAIVFKVFNRYLEVMRKLQKTYRMEPAGSQGVWGLDDFQFLPFIWGSSQLIDHPYLEPRHFVDEKAVNENHKDYMFLECILFITEMKTGPFAEHSNQLWNISAAPSWSKVNQGLIRMYKAECLEKFPVIQHFKFGSLLPIHPVTSG

The target of the test is GST-tagged PP2A core enzyme (AC heterodimer) (human, UniProt P30153;P67775). The experiment in a line: pull-down.
Chain of GST-tagged PP2A core enzyme (AC heterodimer) (P30153 whole entry, chain 1 of 2): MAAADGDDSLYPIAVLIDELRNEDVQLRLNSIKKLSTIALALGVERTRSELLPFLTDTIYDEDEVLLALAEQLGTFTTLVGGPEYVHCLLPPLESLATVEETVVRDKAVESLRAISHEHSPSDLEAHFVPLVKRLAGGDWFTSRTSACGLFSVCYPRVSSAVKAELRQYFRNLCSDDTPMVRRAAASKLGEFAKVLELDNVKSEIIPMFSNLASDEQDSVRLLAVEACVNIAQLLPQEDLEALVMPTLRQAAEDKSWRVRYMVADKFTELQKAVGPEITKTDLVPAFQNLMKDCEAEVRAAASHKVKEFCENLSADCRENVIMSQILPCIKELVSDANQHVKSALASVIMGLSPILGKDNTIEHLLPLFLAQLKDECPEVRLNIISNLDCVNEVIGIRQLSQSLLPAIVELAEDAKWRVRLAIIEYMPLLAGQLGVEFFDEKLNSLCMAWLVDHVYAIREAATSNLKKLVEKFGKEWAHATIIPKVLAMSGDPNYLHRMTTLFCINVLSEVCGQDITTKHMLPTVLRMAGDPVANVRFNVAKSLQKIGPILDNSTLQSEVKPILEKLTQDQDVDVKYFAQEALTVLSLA
Chain of GST-tagged PP2A core enzyme (AC heterodimer) (P67775 whole entry, chain 2 of 2): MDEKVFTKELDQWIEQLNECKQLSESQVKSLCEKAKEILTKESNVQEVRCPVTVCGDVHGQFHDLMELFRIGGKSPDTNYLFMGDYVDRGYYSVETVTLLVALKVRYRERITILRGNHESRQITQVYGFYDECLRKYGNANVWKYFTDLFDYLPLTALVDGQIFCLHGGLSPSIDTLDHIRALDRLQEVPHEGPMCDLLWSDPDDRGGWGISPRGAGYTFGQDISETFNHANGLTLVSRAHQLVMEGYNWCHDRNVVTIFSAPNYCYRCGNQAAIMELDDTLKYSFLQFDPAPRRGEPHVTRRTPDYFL
Take B1: the binding result was “binds”.

Take B2: the binding result is “binds”.

With B3, the binding result is “binds”.

On to B4, for which the binding result was “binds”.

B5: the binding result is on record as “binds”.

B6: the binding result is listed as “binds”.
